From the Human Domainome abundance scans (Beltran et al. 2025)

B1: Far upstream element-binding protein 1, residues 184 to 257; numbered along this chain, Q96AE4 (parent)
chain: GNAVQEIMIPASKAGLVIGKGGETIKQLQERAGVKMVMIQDGPQNTGADKPLRITGDPYKVQQAKEMVLELIRD

Variants of: B1
Experiment: abundance fitness (aPCA) (normalised: wild type 0, dead -1); higher = more abundant; growth selection in yeast, the domain comes from the species named
Conditions: Homo sapiens

Abundance fitness: each site, then its substitutions
L28: R -0.78, M 0.026, A -0.467, V -0.155, D -0.692, E -0.63, C -0.399, T -0.315, Y -0.338, Q -0.612, K -0.791, G -0.825, P -0.77, N -0.415, F -0.225, W -0.284, I -0.026, S -0.639
G33: S -0.123, M -0.137, T -0.29, Y -0.534, R -0.119, W -0.807, F -0.43, E -0.081, C -0.125, A -0.171, V -0.596, D -0.083, L -0.354, I -1.12, P -0.801, H -0.1, K -0.097, Q -0.057, N -0.063
E30: Y -0.114, M 0.025, I -0.03, K -0.01, S -0.007, A -0.039, L -0.026, Q -0.035, R 0.01, V -0.029, T -0.071, H -0.016, D -0.024, G -0.122
V37: E -0.006, A -0.054, Q -0.025, T -0.026, W -0.059, N -0.065, H -0.178, I -0.049, P -0.773, K 0.039, C 0.009, S -0.048, G -0.172, M -0.07, R -0.019
M36: P -0.789, T -0.585, S -0.556, C -0.239, G -0.67, Y -0.786, I -0.053, Q -0.656, W -1, K -0.78, N -0.712, D -0.709, V -0.231, R -0.747, A -0.194, H -0.81, E -0.582
Q27: E -0.001, L -0.083, V -0.095, Y -0.129, N -0.012, D -0.005, G -0.013, K 0.032, T -0.081, R -0.011, W -0.05, C -0.08, I -0.019, M -0.008, A -0.05, S -0.021, H -0.008
Q29: P -0.748, K -0.189, S -0.029, L -0.45, T -0.247, D -0.602, I -0.342, M -0.044, H -0.557, C -0.2, W -0.345, V -0.351, A -0.018, G -0.142, Y -0.67, R -0.137, E -0.026
K20: S -0.042, W -0.166, I -0.129, P -0.026, D 0.049, G -0.105, F -0.07, H -0.045, V -0.031, A 0.02, C -0.14, T -0.035, M -0.112, Y -0.023, E -0.01, N -0.016
I39: F 0.035, D -0.105, H -0.095, G -0.028, E -0.001, C -0.051
V34: K -0.946, S -0.639, W -1.35, L -0.567, A -0.153, Q -0.833, H -0.87, G -0.767, I -0.432, C -0.086, Y -1.11, P -0.918, T -0.232, M -0.808, D -0.807, R -0.974, F -1.35, N -0.68, E -0.753
M38: H -0.13, D -0.392, C -0.166, A -0.183, T -0.21, S -0.205, W -0.032, R -0.444, V -0.007
